Patent US20260209348A1 (University of California, published 2026)
Where a chain is given by its changes, count along the chain named. Where two headings read alike, the source gives them in different places. Blank lines part the entries; values can stand above or below the binder they belong to.

Key:
human ROR2 [1] = target: T1, human ROR2 (human, UniProt Q01974 34-403, limits assumed); assay: SPR
How it was run: (§1)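 Humanized anti-human ROR2 monoclonal antibodies were tested for binding to human ROR2 by surface plasmon resonance. The antibodies were made by grafting murine complementarity-determining regions into human acceptor frameworks, with the constant region converted to human IgG1. Binding affinity is reported as the dissociation constant (Kd) in nM. Antigen format, concentrations, temperature, buffer and replicates are not stated.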

recombinant ROR1 [2] = target: T2, recombinant ROR1 (Homo sapiens (Human), UniProt Q01973 30-406); assay: dot blot on nylon membrane, anti-human IgG-HRP
T2 sequence (Q01973 30-406 limits assumed): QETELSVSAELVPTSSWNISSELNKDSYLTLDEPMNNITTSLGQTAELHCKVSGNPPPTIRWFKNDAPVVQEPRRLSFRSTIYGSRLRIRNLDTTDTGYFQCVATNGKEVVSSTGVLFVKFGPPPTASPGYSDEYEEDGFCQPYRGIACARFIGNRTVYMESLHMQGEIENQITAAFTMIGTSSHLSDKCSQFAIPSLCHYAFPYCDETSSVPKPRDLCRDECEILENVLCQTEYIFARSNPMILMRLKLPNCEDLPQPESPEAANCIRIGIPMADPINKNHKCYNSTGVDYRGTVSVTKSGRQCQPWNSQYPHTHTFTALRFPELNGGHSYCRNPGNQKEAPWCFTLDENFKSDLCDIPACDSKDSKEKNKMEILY

[3] = target: T3, recombinant human ROR2 H349R (human, UniProt Q01974 34-403); assay: dot blot on nylon membrane, anti-human IgG-HRP
T3 construct: Human residue replaced with the mouse residue
T3 sequence (Q01974 34-403 H349R limits assumed): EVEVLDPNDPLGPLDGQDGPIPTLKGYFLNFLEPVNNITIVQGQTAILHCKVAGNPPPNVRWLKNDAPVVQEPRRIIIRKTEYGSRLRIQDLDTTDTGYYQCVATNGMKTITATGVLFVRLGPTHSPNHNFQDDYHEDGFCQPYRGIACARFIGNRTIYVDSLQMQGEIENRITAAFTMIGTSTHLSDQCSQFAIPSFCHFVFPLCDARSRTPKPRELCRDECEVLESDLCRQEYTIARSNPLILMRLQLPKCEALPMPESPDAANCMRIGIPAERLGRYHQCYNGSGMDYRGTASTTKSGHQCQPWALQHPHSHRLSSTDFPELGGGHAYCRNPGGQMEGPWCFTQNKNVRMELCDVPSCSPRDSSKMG

[4] = target: T4, recombinant mouse ROR2 (extracellular portion) (mouse, UniProt Q9Z138 34-403); assay: dot blot on nylon membrane, anti-human IgG-HRP
T4 construct: also called mROR2
T4 sequence (Q9Z138 other isoform, or with tags, fused parts or gaps limits assumed): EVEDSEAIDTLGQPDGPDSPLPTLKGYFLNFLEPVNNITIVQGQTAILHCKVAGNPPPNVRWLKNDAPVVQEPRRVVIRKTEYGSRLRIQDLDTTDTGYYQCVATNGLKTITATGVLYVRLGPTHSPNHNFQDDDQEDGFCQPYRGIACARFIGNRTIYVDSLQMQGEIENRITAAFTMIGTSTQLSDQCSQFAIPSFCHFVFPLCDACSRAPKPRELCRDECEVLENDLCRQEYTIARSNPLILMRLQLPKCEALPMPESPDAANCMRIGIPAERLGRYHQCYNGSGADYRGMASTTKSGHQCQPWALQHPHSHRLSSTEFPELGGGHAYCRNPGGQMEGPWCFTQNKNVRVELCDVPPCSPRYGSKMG

[5] = target: T5, recombinant human ROR2 D354E (human, UniProt Q01974 34-403); assay: dot blot on nylon membrane, anti-human IgG-HRP
T5 sequence (Q01974 34-403 D354E limits assumed): as the sequence (Q01974 34-403 H349R limits assumed) above, with R316H, D321E counted along it

human ROR2 [6] = target: T1, human ROR2; assay: SPR; remark: listed apart in the source
How it was run: as §1

recombinant ROR1 [7] = target: T2, recombinant ROR1; assay: dot blot of arrayed recombinant proteins (key on the sheet)
[8] = target: T3, recombinant human ROR2 H349R; assay: as above
[9] = target: T4, recombinant mouse ROR2 (extracellular …); assay: as above
[10] = target: T5, recombinant human ROR2 D354E; assay: as above
ROR1-Ig = target: T6, ROR1-Ig (human, UniProt Q01973 30-406); assay: flow cytometry, ROR1-Ig then anti-human IgG-PE, Jurkat cells transfected with the CAR
T6 construct: extracellular domain; also called control ROR1-Ig; not shown: CH2-CH3 constant region domains of human IgG1 (same human IgG domains as ROR2-Ig)
T6 sequence (Q01973 30-406): as the sequence (Q01973 30-406 limits assumed) above
Description: All cells were assessed after 48 hours by flow cytometry for binding of recombinant human ROR2-Ig protein comprised of the ROR2 extracellular domain and the CH2-CH3 constant region domains of human IgG1. Cells were stained on ice for 20 minutes with 1 μg/ml of recombinant ROR2-Ig (upper panel) or 1 μg/ml of control ROR1-Ig (lower panel). washed, stained for an additional 20 minutes on ice with phycoerythrin (PE)-conjugated anti-human IgG1 antibody, washed and analyzed by flow cytometry. Shaded histograms depict the relative fluorescence intensity (x axis) of viable cells, as determined by light scatter characteristics, stained with either ROR2-Ig or ROR1-Ig compared to cells stained with the anti-human IgG1-PE antibody only (open histograms). […] Conversely, ROR1 CAR transfected cells bind only to ROR1-Ig.

T1 sequence (Q01974 34-403 limits assumed): as the sequence (Q01974 34-403 H349R limits assumed) above, with R316H counted along it

- Kd (human ROR2 [1]): 463 pM
- binding result (recombinant ROR1 [2]): no binding
- binding result [3]: no binding
- binding result [4]: no binding
- binding result [5]: no binding
- Kd (human ROR2 [6]): 463 pM
B1: h6E6-057 (antibody, human IgG1, V domains shown)
VH: EVQLVESGGGLVKPGGSLRLSCAASGFTFSHYGVSWVRQAPGKGLEWVSTISSGGGYTHYVASVKGRFTISRDNAKNSLYLQMNSLRAEDTAVYYCARHPRDFSYALDYWGQGTTVTVSS
VL: EIVMTQSPATLSVSPGERATLSCKASQDVGHYVAWYQQKPGQAPRLLIYWASTRATGIPARFSGSGSGTEFTLTISSLQSEDFAVYYCQQYNIYPWAFGQGTKVEIK
notes: human IgG1; also called clone 57

- binding result (recombinant ROR1 [7]): no binding
- binding result [8]: no binding
- binding result [9]: no binding
- binding result [10]: no binding
- Kd (human ROR2 [1]): 475 pM
- Kd (human ROR2 [6]): 475 pM
B2: h6E6-063 (antibody, human IgG1, V domains shown)
VH: B1 VH with H31A, V34T, H59Y, V61A, L107I
VL: B1 VL with K24R, V33L, A97T
notes: human IgG1; also called clone 63

- Kd (human ROR2 [1]): 353 pM
- binding result (recombinant ROR1 [2]): no binding
- binding result [3]: no binding
- binding result [4]: no binding
- binding result [5]: no binding
- Kd (human ROR2 [6]): 353 pM
B3: h6E6-066 (antibody, human IgG1, V domains shown)
VH: B1 VH with H31A, V34S, V61A, A62P, L107H
VL: B1 VL with A55H, A97T
notes: human IgG1; also called clone 66

- Kd (human ROR2 [1]): 362 pM
- binding result (recombinant ROR1 [2]): no binding
- binding result [3]: no binding
- binding result [4]: no binding
- binding result [5]: no binding
- Kd (human ROR2 [6]): 362 pM
B4: h6E6-068 (antibody, human IgG1, V domains shown)
VH: B1 VH with H31S, V34I, V61A, A62H
VL: B1 VL with V33L, A97T
notes: human IgG1; also called clone 68

- binding result [9]: no binding
- Kd (human ROR2 [1]): 165 pM
- binding result (recombinant ROR1 [2]): no binding
- binding result [3]: no binding
- binding result [5]: no binding
- Kd (human ROR2 [6]): 165 pM
B5: h6E6-070 (antibody, human IgG1, V domains shown)
VH: B1 VH with H31Q, V34H, V61A, A62H, L107N
VL: B1 VL with K24R, V33L, A97T
notes: human IgG1; Alexa647 conjugate in flow cytometry; also called clone 70

- Kd (human ROR2 [1]): 319 pM
- binding result (recombinant ROR1 [2]): no binding
- binding result [3]: no binding
- binding result [4]: no binding
- binding result [5]: no binding
- Kd (human ROR2 [6]): 319 pM
B6: h6E6-102 (antibody, human IgG1, V domains shown)
VH: B1 VH with H31K, V34L, A62E, L107S
VL: B1 VL with A97T
notes: human IgG1; also called clone 102

- Kd (human ROR2 [1]): 380 pM
- binding result (recombinant ROR1 [2]): no binding
- binding result [3]: no binding
- binding result [4]: no binding
- binding result [5]: no binding
- Kd (human ROR2 [6]): 380 pM
B7: h6E6-072 (antibody, human IgG1, V domains shown)
VH: B1 VH with H31Q, V34H, V61A, A62D, L107Q
VL: B1 VL with V33L, A55H, A97T
notes: human IgG1; also called clone 72

- binding result (recombinant ROR1 [7]): no binding
- binding result [8]: no binding
- binding result [9]: no binding
- binding result [10]: no binding
- Kd (human ROR2 [1]): 187 pM
- Kd (human ROR2 [6]): 187 pM
B8: h6E6-058 (antibody, human IgG1, V domains shown)
VH: B1 VH with H31V, V34L, H59Q, V61A, A62P, L107F
VL: B1 VL with V33L, A97T
notes: human IgG1; also called clone 58

- Kd (human ROR2 [1]): 422 pM
- binding result (recombinant ROR1 [2]): no binding
- binding result [3]: no binding
- binding result [4]: no binding
- binding result [5]: no binding
- Kd (human ROR2 [6]): 422 pM
B9: h6E6-107 (antibody, human IgG1, V domains shown)
VH: B1 VH with H31T, V34A, V61A, A62P
VL: B1 VL with A97T
notes: human IgG1; also called clone 107

- Kd (human ROR2 [1]): 155 pM
- binding result (recombinant ROR1 [2]): no binding
- binding result [3]: no binding
- binding result [4]: no binding
- binding result [5]: no binding
- Kd (human ROR2 [6]): 155 pM
B10: h6E6-077 (antibody, human IgG1, V domains shown)
VH: B1 VH with V34T, V61A, A62P, L107I
VL: B1 VL with A97T
notes: human IgG1; also called clone 77

- Kd (human ROR2 [1]): 348 pM
- binding result (recombinant ROR1 [2]): no binding
- binding result [3]: no binding
- binding result [4]: no binding
- binding result [5]: no binding
- Kd (human ROR2 [6]): 348 pM
B11: h6E6-116 (antibody, human IgG1, V domains shown)
VH: B1 VH with H31T, V61A, A62G
VL: B1 VL with K24R, V33L, A97T
notes: human IgG1; Alexa647 conjugate in flow cytometry

- binding result (ROR1-Ig): no binding (tested: 1 ug/ml)
B12: h6E6-116 anti-human ROR2 chimeric antigen receptor (other, not shown: small tags and cut ends)
chain: EVQLVESGGGLVKPGGSLRLSCAASGFTFSTYGVSWVRQAPGKGLEWVSTISSGGGYTHYAGSVKGRFTISRDNAKNSLYLQMNSLRAEDTAVYYCARHPRDFSYALDYWGQGTTVTVSSEIVMTQSPATLSVSPGERATLSCRASQDVGHYLAWYQQKPGQAPRLLIYWASTRATGIPARFSGSGSGTEFTLTISSLQSEDFAVYYCQQYNIYPWTFGQGTKVEIK
notes: Expressed on transfected Jurkat cells
